Measured values from publication PMC6294518, “Structural insights into the duplex DNA processing of TREX2” (Nucleic Acids Research, 2018).

Assays:
mTREX2 [1] = biological target: T1, mTREX2 (Mus musculus, UniProt Q9R1A9 1-236); assay: X-ray crystallography (1.9 A); 2 Mg2+ per active site; Co-crystallization: mTREX2 5-8 mg/ml (stock 50 mM Tris-HCl, 400 mM NaCl, pH 7.0) with DNA at molar ratio 1:1.2; crystallization conditions in Table S2 not in the material; conditions: protein: recombinant; tags: pET28a vector, TALON-purified (His tag implied); chain copies: 2; hairpin; 1-nt unpaired 3' overhang, 4-nt unpaired 5' overhang; 2 DNAs per protein dimer
T1 sequence: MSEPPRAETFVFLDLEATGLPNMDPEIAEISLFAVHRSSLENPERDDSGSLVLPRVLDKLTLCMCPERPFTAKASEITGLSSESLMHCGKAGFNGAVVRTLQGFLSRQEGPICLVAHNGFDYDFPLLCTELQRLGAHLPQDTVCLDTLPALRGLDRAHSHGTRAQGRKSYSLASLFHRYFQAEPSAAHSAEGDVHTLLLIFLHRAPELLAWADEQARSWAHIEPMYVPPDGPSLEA

[2] = biological target: the molecule itself; assay: crystal structure; apo-mTREX2 at 1.9 Å, one dimer in the asymmetric unit; a dimer is also seen in the Y-shaped DNA complex and the product (dCMP) complex
mTREX2 [3] = biological target: T1, mTREX2; assay: X-ray crystallography (2.7 A); 2 Mg2+ per active site; Co-crystallization: mTREX2 5-8 mg/ml (stock 50 mM Tris-HCl, 400 mM NaCl, pH 7.0) with DNA at molar ratio 1:1.2; crystallization conditions in Table S2 not in the material; conditions: protein: recombinant; tags: pET28a vector, TALON-purified (His tag implied); chain copies: 2; hairpin; 3' overhang 2 nt

## TGCCAGGCCCTCTTTAGGGCCTT (structured_DNA) [Y-shaped DNA (23-nt stem loop)]
mTREX2 [1]
  binding result: binds

B1: mouse TREX2 (three prime repair exonuclease 2) (enzyme)
chain: MSEPPRAETFVFLDLEATGLPNMDPEIAEISLFAVHRSSLENPERDDSGSLVLPRVLDKLTLCMCPERPFTAKASEITGLSSESLMHCGKAGFNGAVVRTLQGFLSRQEGPICLVAHNGFDYDFPLLCTELQRLGAHLPQDTVCLDTLPALRGLDRAHSHGTRAQGRKSYSLASLFHRYFQAEPSAAHSAEGDVHTLLLIFLHRAPELLAWADEQARSWAHIEPMYVPPDGPSLEA
notes: TREX2, three prime repair exonuclease 2, mouse; NCBI Gene ID 24102; Cloned into pET28a and purified on a TALON column; Homodimer in the crystal and by gel filtration; also called mTREX2; apo-mTREX2; source: E. coli BL21-CodonPlus (DE3)-Rosetta, purified (HiTrap TALON, HiTrap Q, Superdex 75)
[2]
  stoichiometry N: 2

## GGCCCTCTTTAGGGCCTT (structured_DNA) [duplex DNA with 2-nt 3'-overhang (stem loop)]
mTREX2 [3]
  binding result: binds
